Data from patent US20250101127A1 (CYRON THERAPEUTICS, published 2025).

B1: humanized MP1 antibody VH8/VL2 (antibody, V domains shown)
VH: QVQLVESGGGVVQPGRSLRLSCAASGITFSSYWMNWVRQAPGKGLEWVAQIRNKPYNYEKYYAQSVKGRFTISRDDSKSTLYLQMSSLRAEDTAVYYCAWAMITSDGYAMDYWGQGTLVTVSS
VL: DIVMTQSPDSLAVSLGERATISCKSSQSVLLSSNQKNYLAWYQQKPGQPPKLLIYWASTRESGVPDRFSGSGSGTEFTLTISSLQAEDVAVYYCQQSFSYPLTFGQGTKLEIK
notes: tested as ExpiCHO-S culture solution
B2: humanized MP1 antibody VH8/VL8 (antibody, V domains shown)
VH: QVQLVESGGGVVQPGRSLRLSCAASGITFSSYWMNWVRQAPGKGLEWVAQIRNKPYNYEKYYAQSVKGRFTISRDDSKSTLYLQMSSLRAEDTAVYYCAWAMITSDGYAMDYWGQGTLVTVSS
VL: DIVMTQSPLSLPVTPGEPASISCRSSQSLLLSSNQKNYLAWYLQKPGQSPQLLIYWGSTRESGVPDRFSGSGSGTDFTLKISRVEAEDVGVYYCQQSFSYPLTFGQGTKLEIK
notes: as for B1
B3: humanized MP1 antibody VH1/VL2 (antibody, V domains shown)
VH: EVKVVESGGGLVQPGRSLRLSCTASGITFSDYWMNWVRQAPGKGLEWVGQIRNKPYNYETYYSQSVKGRFTISRDDSKSIAYLQMSSLKTEDTAVYYCTWAMITSDGYAMDYWGQGTLVTVSS
VL: DIVMTQSPDSLAVSLGERATISCKSSQSVLLSSNQKNYLAWYQQKPGQPPKLLIYWASTRESGVPDRFSGSGSGTEFTLTISSLQAEDVAVYYCQQSFSYPLTFGQGTKLEIK
notes: as for B1
B4: humanized MP1 antibody VH1/VL1 (antibody, V domains shown)
VH: EVKVVESGGGLVQPGRSLRLSCTASGITFSDYWMNWVRQAPGKGLEWVGQIRNKPYNYETYYSQSVKGRFTISRDDSKSIAYLQMSSLKTEDTAVYYCTWAMITSDGYAMDYWGQGTLVTVSS
VL: DIVMTQSPDSLAVSLGERATISCKSSQSLLLSSNQKNYLAWYQQKPGQPPKLLIYWASTRESGVPDRFSGSGSGTEFTLTISSVQAEDVAVYYCQQCFSYPLTFGQGTKLEIK
notes: as for B1
B5: humanized MP1 antibody VH4/VL2 (antibody, V domains shown)
VH: EVKVVESGGGLVQPGGSLRLSCAASGITFSDYWMNWVRQAPGKGLEWVAQIRNKPYNYETYYSNSVKGRFTISRDDAKSSVYLQMSSLRAEDTAVYYCTWAMITSDGYAMDYWGQGTLVTVSS
VL: DIVMTQSPDSLAVSLGERATISCKSSQSVLLSSNQKNYLAWYQQKPGQPPKLLIYWASTRESGVPDRFSGSGSGTEFTLTISSLQAEDVAVYYCQQSFSYPLTFGQGTKLEIK
notes: as for B1
B6: humanized MP1 antibody VH8/VL4 (antibody, V domains shown)
VH: QVQLVESGGGVVQPGRSLRLSCAASGITFSSYWMNWVRQAPGKGLEWVAQIRNKPYNYEKYYAQSVKGRFTISRDDSKSTLYLQMSSLRAEDTAVYYCAWAMITSDGYAMDYWGQGTLVTVSS
VL: EIVMTQSPGTLSLSPGERATLSCRSSQSLLLSSNQKNYLAWYQQKPGQAPRLLIYWASTRESGIPDRFSGSGSGTDFTLTISRVEPEDFAVYYCQQCFSYPLTFGQGTKLEIK
notes: as for B1
B7: humanized MP1 antibody VH7/VL5 (antibody, V domains shown)
VH: QVKVVESGGGVVQPGRSLRLSCAASGITFSDYWMNWVRQAPGKGLEWVAQIRNKPYNYETYYSNSVKGRFTISRDDSKSTVYLQMSSLRAEDTAVYYCTWAMITSDGYAMDYWGQGTLVTVSS
VL: EIVLTQSPGTLSLSPGERATLSCRASQSVLLSSNQKNYLAWYQQKPGQAPRLLIYWASSRETGIPDRFSGSGSGTDFTLTISRLEPEDFAVYYCQQSFSYPLTFGQGTKLEIK
notes: as for B1
B8: humanized MP1 antibody VH8/VL6 (antibody, V domains shown)
VH: QVQLVESGGGVVQPGRSLRLSCAASGITFSSYWMNWVRQAPGKGLEWVAQIRNKPYNYEKYYAQSVKGRFTISRDDSKSTLYLQMSSLRAEDTAVYYCAWAMITSDGYAMDYWGQGTLVTVSS
VL: EIVLTQSPGTLSLSPGERATLSCRASQSVLLSSSQKNYLAWYQQKPGQAPRLLIYWASSRATGIPDRFSGSGSGTDFTLTISRLEPEDFAVYYCQQSFSSPYTFGQGTKLEIK
notes: as for B1
B9: humanized MP1 antibody VH8/VL3 (antibody, V domains shown)
VH: QVQLVESGGGVVQPGRSLRLSCAASGITFSSYWMNWVRQAPGKGLEWVAQIRNKPYNYEKYYAQSVKGRFTISRDDSKSTLYLQMSSLRAEDTAVYYCAWAMITSDGYAMDYWGQGTLVTVSS
VL: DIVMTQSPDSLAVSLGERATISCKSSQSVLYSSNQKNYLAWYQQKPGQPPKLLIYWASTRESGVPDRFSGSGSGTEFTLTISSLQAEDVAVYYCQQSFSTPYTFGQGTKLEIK
notes: as for B1
B10: humanized MP1 antibody VH4/VL4 (antibody, V domains shown)
VH: EVKVVESGGGLVQPGGSLRLSCAASGITFSDYWMNWVRQAPGKGLEWVAQIRNKPYNYETYYSNSVKGRFTISRDDAKSSVYLQMSSLRAEDTAVYYCTWAMITSDGYAMDYWGQGTLVTVSS
VL: EIVMTQSPGTLSLSPGERATLSCRSSQSLLLSSNQKNYLAWYQQKPGQAPRLLIYWASTRESGIPDRFSGSGSGTDFTLTISRVEPEDFAVYYCQQCFSYPLTFGQGTKLEIK
notes: as for B1
B11: humanized MP1 antibody VH8/VL5 (antibody, V domains shown)
VH: QVQLVESGGGVVQPGRSLRLSCAASGITFSSYWMNWVRQAPGKGLEWVAQIRNKPYNYEKYYAQSVKGRFTISRDDSKSTLYLQMSSLRAEDTAVYYCAWAMITSDGYAMDYWGQGTLVTVSS
VL: EIVLTQSPGTLSLSPGERATLSCRASQSVLLSSNQKNYLAWYQQKPGQAPRLLIYWASSRETGIPDRFSGSGSGTDFTLTISRLEPEDFAVYYCQQSFSYPLTFGQGTKLEIK
notes: as for B1
B12: humanized MP1 antibody VH1/VL5 (antibody, V domains shown)
VH: EVKVVESGGGLVQPGRSLRLSCTASGITFSDYWMNWVRQAPGKGLEWVGQIRNKPYNYETYYSQSVKGRFTISRDDSKSIAYLQMSSLKTEDTAVYYCTWAMITSDGYAMDYWGQGTLVTVSS
VL: EIVLTQSPGTLSLSPGERATLSCRASQSVLLSSNQKNYLAWYQQKPGQAPRLLIYWASSRETGIPDRFSGSGSGTDFTLTISRLEPEDFAVYYCQQSFSYPLTFGQGTKLEIK
notes: as for B1
B13: humanized MP1 antibody VH8/VL1 (antibody, V domains shown)
VH: QVQLVESGGGVVQPGRSLRLSCAASGITFSSYWMNWVRQAPGKGLEWVAQIRNKPYNYEKYYAQSVKGRFTISRDDSKSTLYLQMSSLRAEDTAVYYCAWAMITSDGYAMDYWGQGTLVTVSS
VL: DIVMTQSPDSLAVSLGERATISCKSSQSLLLSSNQKNYLAWYQQKPGQPPKLLIYWASTRESGVPDRFSGSGSGTEFTLTISSVQAEDVAVYYCQQCFSYPLTFGQGTKLEIK
notes: as for B1
B14: humanized MP1 antibody VH7/VL4 (antibody, V domains shown)
VH: QVKVVESGGGVVQPGRSLRLSCAASGITFSDYWMNWVRQAPGKGLEWVAQIRNKPYNYETYYSNSVKGRFTISRDDSKSTVYLQMSSLRAEDTAVYYCTWAMITSDGYAMDYWGQGTLVTVSS
VL: EIVMTQSPGTLSLSPGERATLSCRSSQSLLLSSNQKNYLAWYQQKPGQAPRLLIYWASTRESGIPDRFSGSGSGTDFTLTISRVEPEDFAVYYCQQCFSYPLTFGQGTKLEIK
notes: as for B1
B15: humanized MP1 antibody VH4/VL5 (antibody, V domains shown)
VH: EVKVVESGGGLVQPGGSLRLSCAASGITFSDYWMNWVRQAPGKGLEWVAQIRNKPYNYETYYSNSVKGRFTISRDDAKSSVYLQMSSLRAEDTAVYYCTWAMITSDGYAMDYWGQGTLVTVSS
VL: EIVLTQSPGTLSLSPGERATLSCRASQSVLLSSNQKNYLAWYQQKPGQAPRLLIYWASSRETGIPDRFSGSGSGTDFTLTISRLEPEDFAVYYCQQSFSYPLTFGQGTKLEIK
notes: as for B1
B16: humanized MP1 antibody VH7/VL3 (antibody, V domains shown)
VH: QVKVVESGGGVVQPGRSLRLSCAASGITFSDYWMNWVRQAPGKGLEWVAQIRNKPYNYETYYSNSVKGRFTISRDDSKSTVYLQMSSLRAEDTAVYYCTWAMITSDGYAMDYWGQGTLVTVSS
VL: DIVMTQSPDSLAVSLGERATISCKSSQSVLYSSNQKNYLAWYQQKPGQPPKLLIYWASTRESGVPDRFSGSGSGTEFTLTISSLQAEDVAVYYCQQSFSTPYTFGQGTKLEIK
notes: as for B1
B17: humanized MP1 antibody VH9/VL2 (antibody, V domains shown)
VH: QVQLVESGGGVVQPGRSLRLSCAASGFTFSSYWMHWVRQAPGKGLEWVAVIRYKPYGSEKYYAQSVKGRFTISRDDSKSTLYLQMSSLRAEDTAVYYCAWAMITSDGYAFDYWGQGTLVTVSS
VL: DIVMTQSPDSLAVSLGERATISCKSSQSVLLSSNQKNYLAWYQQKPGQPPKLLIYWASTRESGVPDRFSGSGSGTEFTLTISSLQAEDVAVYYCQQSFSYPLTFGQGTKLEIK
notes: as for B1
B18: humanized MP1 antibody VH1/VL4 (antibody, V domains shown)
VH: EVKVVESGGGLVQPGRSLRLSCTASGITFSDYWMNWVRQAPGKGLEWVGQIRNKPYNYETYYSQSVKGRFTISRDDSKSIAYLQMSSLKTEDTAVYYCTWAMITSDGYAMDYWGQGTLVTVSS
VL: EIVMTQSPGTLSLSPGERATLSCRSSQSLLLSSNQKNYLAWYQQKPGQAPRLLIYWASTRESGIPDRFSGSGSGTDFTLTISRVEPEDFAVYYCQQCFSYPLTFGQGTKLEIK
notes: as for B1
B19: humanized MP1 antibody VH4/VL8 (antibody, V domains shown)
VH: EVKVVESGGGLVQPGGSLRLSCAASGITFSDYWMNWVRQAPGKGLEWVAQIRNKPYNYETYYSNSVKGRFTISRDDAKSSVYLQMSSLRAEDTAVYYCTWAMITSDGYAMDYWGQGTLVTVSS
VL: DIVMTQSPLSLPVTPGEPASISCRSSQSLLLSSNQKNYLAWYLQKPGQSPQLLIYWGSTRESGVPDRFSGSGSGTDFTLKISRVEAEDVGVYYCQQSFSYPLTFGQGTKLEIK
notes: as for B1
B20: humanized MP1 antibody VH4/VL7 (antibody, V domains shown)
VH: EVKVVESGGGLVQPGGSLRLSCAASGITFSDYWMNWVRQAPGKGLEWVAQIRNKPYNYETYYSNSVKGRFTISRDDAKSSVYLQMSSLRAEDTAVYYCTWAMITSDGYAMDYWGQGTLVTVSS
VL: DIVMTQSPLSLPVTPGEPASISCRSSQSLLLSSNQKNYLAWYLQKPGQSPQLLIYWASTRESGVPDRFSGSGSGTDFTLKISRVEAEDVGVYYCQQCFSYPLTFGQGTKLEIK
notes: as for B1

Target: T1, MUC1 (Mucin-1) as expressed by human cancer cell lines (human, UniProt P15941 24-1255)
T1 construct: whole, on cells; Endogenous antigen on the cell surface (flow cytometry) or in cell lysates (immunoprecipitation, western blot); also called MUC1 antigen; antigen recognized by the MP1 monoclonal antibody
T1 sequence (P15941 24-1255): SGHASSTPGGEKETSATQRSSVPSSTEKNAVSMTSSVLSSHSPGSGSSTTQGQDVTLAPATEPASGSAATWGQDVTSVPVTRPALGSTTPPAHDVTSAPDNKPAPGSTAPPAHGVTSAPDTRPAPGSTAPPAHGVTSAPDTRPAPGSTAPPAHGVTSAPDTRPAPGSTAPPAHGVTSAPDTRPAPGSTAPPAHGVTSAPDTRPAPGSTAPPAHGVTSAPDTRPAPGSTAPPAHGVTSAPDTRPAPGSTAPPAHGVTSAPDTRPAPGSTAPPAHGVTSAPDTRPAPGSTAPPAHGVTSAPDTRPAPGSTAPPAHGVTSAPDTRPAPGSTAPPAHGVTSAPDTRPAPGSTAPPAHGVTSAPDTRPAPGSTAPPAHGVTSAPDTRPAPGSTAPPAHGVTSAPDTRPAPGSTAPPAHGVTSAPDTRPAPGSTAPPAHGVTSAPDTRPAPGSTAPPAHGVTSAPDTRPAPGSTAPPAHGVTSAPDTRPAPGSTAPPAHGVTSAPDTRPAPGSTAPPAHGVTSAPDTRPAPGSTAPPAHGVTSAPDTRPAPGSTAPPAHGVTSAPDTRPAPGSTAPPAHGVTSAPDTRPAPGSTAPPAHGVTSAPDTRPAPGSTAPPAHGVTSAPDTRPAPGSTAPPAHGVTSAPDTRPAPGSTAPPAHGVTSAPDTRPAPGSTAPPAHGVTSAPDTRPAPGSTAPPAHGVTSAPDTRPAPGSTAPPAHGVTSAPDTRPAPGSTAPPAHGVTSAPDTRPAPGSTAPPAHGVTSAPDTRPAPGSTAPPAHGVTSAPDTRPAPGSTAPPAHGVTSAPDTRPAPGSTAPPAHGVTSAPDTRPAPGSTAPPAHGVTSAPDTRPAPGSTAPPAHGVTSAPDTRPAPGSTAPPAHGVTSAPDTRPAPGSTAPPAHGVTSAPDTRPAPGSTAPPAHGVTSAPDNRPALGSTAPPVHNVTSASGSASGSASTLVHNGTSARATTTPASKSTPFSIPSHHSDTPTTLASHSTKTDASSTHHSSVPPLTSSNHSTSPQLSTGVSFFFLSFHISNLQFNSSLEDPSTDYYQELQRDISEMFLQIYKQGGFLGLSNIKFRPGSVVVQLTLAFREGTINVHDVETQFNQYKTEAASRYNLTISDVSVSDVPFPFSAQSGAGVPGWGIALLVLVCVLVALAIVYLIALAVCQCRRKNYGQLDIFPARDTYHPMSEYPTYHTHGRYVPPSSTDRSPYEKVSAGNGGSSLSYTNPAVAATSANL
Assay: flow cytometry, Capan-2 cells stained with transient-expression culture solution; positive rate against the negative control

Point of comparison: B11, “Capan-2 cell surface binding (%)” value 6.61%. Against it:
- B1 — higher, 11.4%
- B2 — higher, 7.16%
- B3 — higher, 13.5%
- B4 — higher, 7.95%
- B5 — higher, 7.2%
- B6 — higher, 15.6%
- B7 — higher, 10.2%
- B8 — higher, 9.97%
- B9 — higher, 28.5%
- B10 — higher, 18.1%
- B12 — higher, 27.2%
- B13 — higher, 6.65%
- B14 — higher, 12.7%
- B15 — higher, 16.9%
- B16 — higher, 11.5%
- B17 — higher, 7.04%
- B18 — higher, 15.8%
- B19 — higher, 11.4%
- B20 — higher, 11%
